In publication PMC5382266 (Nature Communications, 2017):

Target: T1, refolded IL-7Rα ectodomain (human, UniProt P16871-1 21-239)
T1 construct: extracellular fragment of human IL-7Rα, NP_002176.2, residues 21-239; His tag removed with thrombin; also called IL-7Rα ectodomain (E. coli); not shown: His6, N-terminal, cleaved
T1 sequence (looked up): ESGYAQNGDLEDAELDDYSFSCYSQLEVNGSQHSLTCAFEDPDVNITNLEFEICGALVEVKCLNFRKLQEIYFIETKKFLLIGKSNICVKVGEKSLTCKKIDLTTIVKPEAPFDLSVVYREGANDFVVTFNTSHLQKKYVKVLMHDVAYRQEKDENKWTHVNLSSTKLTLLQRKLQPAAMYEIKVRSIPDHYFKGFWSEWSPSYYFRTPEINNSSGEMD
Experiment: crystal structure; TSLP^Δ127–131:TSLPR^N47Q:IL-7Rα complex; 0.02 M citric acid, 0.08 M BIS-TRIS propane pH 8.8, 16% PEG 3,350, 293 K; 2.55 Å
Conditions: both partners purified

binding result: binds
B1: TSLPR^N47Q (domain or fragment, human, UniProt Q9HC73-1 23-221, looked up)
chain: QGGAAEGVQIQIIYFNLETVQVTWQASKYSRTNLTFHYRFNGDEAYDQCTNYLLQEGHTSGCLLDAEQRDDILYFSIRNGTHPVFTASRWMVYYLKPSSPKHVRFSWHQDAVTVTCSDLSYGDLLYEVQYRSPFDTEWQSKQENTCNVTIEGLDAEKCYSFWVRVKAMEDVYGPDTYPSDWSEVTCWQRGEIRDACAET
notes: signal peptide in the construct; extracellular fragment of human TSLPR, NP_071431.2, residues 1-221, N-glycosylation mutant N47Q; also called EndoH-treated TSLPR^N47Q
